{"source": "paper PMC4979544", "about": "(Structure (London, England : 1993), 2016)", "binders": {"B1": {"name": "A. tumefaciens ClpS2 L28A (natural protein)", "chain": "MSDSPVDLKPKPKVKPKLERPKLYKVMALNDDYTPREFVTVVLKAVFRMSEDTGRRVMMTAHRFGSAVVVVCERDIAETKAKEATDLGKEAGFPLMFTTEPEE"}, "B2": {"name": "A. tumefaciens ClpS2 R36M (natural protein)", "chain": "B1 chain with A28L, R36M"}}, "test_in_all_cases": "fluorescence polarisation", "key": {"[1]": {"biological_target": "T1, YRFVQELASKEVC-fluorescein peptide", "T1 peptide": "YRFVQELASKEVC(fluorescein‑5‑maleimide)"}, "[2]": {"biological_target": "T2, FRFVQELASKEVC-fluorescein peptide", "T2 peptide": "FRFVQELASKEVC(fluorescein‑5‑maleimide)"}, "[3]": {"biological_target": "T3, WRFVQELASKEVC-fluorescein peptide", "T3 peptide": "WRFVQELASKEVC(fluorescein‑5‑maleimide)"}, "[4]": {"biological_target": "T4, A. tumefaciens ClpS2 (A. tumefaciens, UniProt Q8UD95 1-103, 35S-labeled in the peptide blots only)", "T4 sequence (looked up)": "B1 chain with A28L"}}, "note": "Substitutions are numbered along the chain they refer to. In names and notes the source's numbering stands. Ends that are not written are not given here."}
{"binder": "B1", "values": [{"measurement": "ΔΔG against parent ClpS2", "setting": "[1]", "result": -0.26, "unit": "kcal/mol"}, {"measurement": "ΔΔG against parent ClpS2", "setting": "[2]", "result": 0.91, "unit": "kcal/mol"}, {"measurement": "ΔΔG against parent ClpS2", "setting": "[3]", "result": 0.3, "unit": "kcal/mol"}]}
{"binder": "B2", "values": [{"measurement": "ΔΔG against parent ClpS2", "setting": "[1]", "result": -0.74, "unit": "kcal/mol"}, {"measurement": "ΔΔG against parent ClpS2", "setting": "[2]", "result": -0.17, "unit": "kcal/mol"}, {"measurement": "ΔΔG against parent ClpS2", "setting": "[3]", "result": -0.3, "unit": "kcal/mol"}]}
{"binder": "LRFVQELASKEVC(fluorescein‑5‑maleimide)", "note": "[LRFVQELASKEVC-fluorescein peptide]", "values": [{"measurement": "Kd", "setting": "[4]", "result": "> 800", "unit": "µM"}]}
